From PMC6122992

Target: rhodamine-labeled cyclic β-hairpin peptide (human)
Assay: fluorescence polarisation

Kd [µM]	Substance
3.5	recombinant Ssa1 (from UniProt P10591 1-642) (natural protein)
46.8	recombinant Ydj1 (from UniProt P25491 1-409) (natural protein)
